The text below walks through data of patent US20060270596A1 (CENTRE NATIONAL DE LA RECHERCHE SCIENTIFIQUE CNRS, published 2006).

Assay [1] concerns the target T1, THAP1-N1 deletion mutant (amino acids 1-90) (human, UniProt Q9NVV9 1-90).
T1 construct: Gal4 fusion, in vitro translation product or GFP fusion according to assay; also called zinc finger domain of THAP1
T1 sequence: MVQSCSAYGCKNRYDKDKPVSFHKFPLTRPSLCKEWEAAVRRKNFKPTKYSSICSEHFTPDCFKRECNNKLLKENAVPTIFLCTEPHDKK
The experiment in a line: in vivo interaction test: GFP-THAP1 mutant and myc-Par4DD co-expressed in primary human endothelial cells, confocal immunofluorescence. From the text:
To provide further evidence for a physiological interaction between THAP1 and Par4 in vivo interactions between THAP1 and PAR4 were investigated. For that purpose, confocal immunofluorescence microscopy was used to analyze the subcellular localization of epitope-tagged Par4DD in primary human endothelial cells transiently cotransfected with pEF-mycPar4DD eukaryotic expression vector and GFP or GFP-THAP1 expression vectors (pEGFP.C2 and pEGFP.C2-THAP1, respectively). To generate pEF-mycPar4DD, mycPar4DD (amino acids 250-342) was amplified by PCR using pGBKT7-Par4DD as template, with primers myc.BD7 (5′-[…]-3′) (SEQ ID NO: 195) and Par4.9 (5′-[…]-3′) (SEQ ID NO: 196), and cloned into the XbaI and NotI sites of the pEF-BOS expression vector (Mizushima and Nagata, Nucleic Acids Research, 18:5322, 1990). Primary human endothelial cells from umbilical vein (HUVEC, PromoCell, Heidelberg, Germany) were grown in complete ECGM medium (PromoCell, Heidelberg, Germany), plated on coverslips and transiently transfected in RPMI medium using GeneJammer transfection reagent according to manufacturer instructions (Stratagene, La Jolla, Calif., USA). Cells co-transfected with pEF-mycPar4DD and GFP-tagged expression constructs were allowed to grow for 24 h to 48 h on coverslips. Cells were washed twice with PBS, fixed for 15 min at room temperature in PBS containing 3.7% formaldehyde, and washed again with PBS prior to neutralization with 50 mM NH₄Cl in PBS for 5 min at room temperature. Following one more PBS wash, cells were permeabilized 5 min at room temperature in PBS containing 0.1% Triton-X100, and washed again with PBS. Permeabilized cells were then blocked with PBS-BSA (PBS with 1% bovine serum albumin) for 10′ and then incubated 2 hr at room temperature with mouse monoclonal antibody anti-myc epitope (mouse IgG1, 1/200, Clontech) diluted in PBS-BSA. Cells were then washed three times 5 min at room temperature in PBS-BSA, and incubated for 1 hr with Cy3 (red fluorescence)-conjugated goat anti-mouse (1/1000, Amersham Pharmacia Biotech) secondary antibodies, diluted in PBS-BSA. After extensive washing in PBS, samples were air dried and mounted in Mowiol. Images were collected on a Leica confocal laser scanning microscope.

Assay [2] has as its target T2, human THAP1 (THanatos-Associated-Protein-1), full length (human, UniProt Q9NVV9 1-213).
T2 construct: these tags are not written into the chain; also called hTHAP1; THAP1 wild type
T2 sequence: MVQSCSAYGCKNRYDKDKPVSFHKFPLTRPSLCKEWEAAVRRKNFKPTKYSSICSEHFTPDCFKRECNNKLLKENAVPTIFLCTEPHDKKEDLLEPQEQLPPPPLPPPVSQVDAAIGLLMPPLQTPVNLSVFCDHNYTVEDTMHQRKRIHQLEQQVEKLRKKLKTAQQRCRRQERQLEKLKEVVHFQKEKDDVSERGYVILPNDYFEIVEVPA
The experiment in a line: yeast two-hybrid, both orientations. The method, then: To identify potential protein partners of THAP1, screening of the two-hybrid HEVEC cDNA library was performed using as a bait the human THAP1 full length cDNA inserted into the […] two-hybrid system 3 vector pGBKT7 (Clontech). Briefly, the full-length coding region of THAP1 was amplified by PCR from HEVEC cDNA with primers 2HMR10 (5′-[…]-3′) (SEQ ID NO: 187) and 2HMR9 (5′-[…]-3′) (SEQ ID NO: 188), digested with EcoRI and BamHI, and cloned in frame downstream of the Gal4 Binding Domain (Gal4-BD) in pGBKT7 vector to generate pGBKT7-THAP1. pGBKT7-THAP1 was then cotransformed with the pGAD424-HEVEC cDNA library in yeast strain AH109 (Clontech). 1.5×10⁷ yeast transformants were screened and positive protein interactions were selected by His and Ade double auxotrophy according to manufacturer's instructions ([…] two-hybrid system 3, Clontech). The plates were incubated at 30° C. for 5 days. Plasmid DNA was extracted from these positive colonies and used to verify the specificity of the interaction by cotransformation in AH109 with pGBKT7-THAP1 or control baits pGBKT7, pGBKT7-lamin and pGBKT7-hevin. […] Positive interaction between THAP1 and Par4 was confirmed using full length Par4 bait (pGBKT-Par4) and prey (pGADT7-Par4). […]

For assay [3], the target named is T3, THAP1ΔQRCRR mutant (deletion of residues 168-172) (human, UniProt Q9NVV9 1-213).
T3 sequence: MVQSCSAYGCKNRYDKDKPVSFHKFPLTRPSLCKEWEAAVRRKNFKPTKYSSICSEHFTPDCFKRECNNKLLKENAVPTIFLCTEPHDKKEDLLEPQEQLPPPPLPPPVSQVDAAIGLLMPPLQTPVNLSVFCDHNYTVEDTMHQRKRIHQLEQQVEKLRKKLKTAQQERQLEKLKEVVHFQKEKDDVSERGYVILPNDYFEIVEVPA
The experiment in a line: yeast two-hybrid and in vivo interaction assay.

Assay [4] deals with T4, human THAP3, full length (human, UniProt Q8WTV1 1-239).
T4 construct: Two-hybrid fusion or 35S-labelled in vitro translation product
T4 sequence: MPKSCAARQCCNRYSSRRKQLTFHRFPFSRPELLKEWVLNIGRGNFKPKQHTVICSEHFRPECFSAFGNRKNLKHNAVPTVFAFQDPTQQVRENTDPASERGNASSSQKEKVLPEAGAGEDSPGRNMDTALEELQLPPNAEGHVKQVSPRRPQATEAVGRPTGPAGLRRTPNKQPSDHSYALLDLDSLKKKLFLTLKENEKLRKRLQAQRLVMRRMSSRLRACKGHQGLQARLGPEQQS
The experiment in a line: yeast two-hybrid, Par4DD bait.

Assay [5] concerns the target T5, human THAP2, full length (human, UniProt Q9H0W7 1-228).
T5 construct: Two-hybrid fusion or 35S-labelled in vitro translation product
The assay can be described thus: yeast two-hybrid, Par4DD bait.

T5 sequence (Q9H0W7 whole entry, the tested form may be a part): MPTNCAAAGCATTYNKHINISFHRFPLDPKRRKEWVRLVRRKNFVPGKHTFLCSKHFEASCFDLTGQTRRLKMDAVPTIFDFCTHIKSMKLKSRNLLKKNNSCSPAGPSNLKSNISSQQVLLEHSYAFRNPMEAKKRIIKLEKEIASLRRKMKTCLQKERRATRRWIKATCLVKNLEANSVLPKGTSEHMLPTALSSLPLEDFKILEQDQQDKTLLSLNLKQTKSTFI

B1: Par4 leucine zipper/death domain (Par4DD, amino acids 250-342) (other)
chain: GFPRYNRDANVSGTLVSSSTLEKKIEDLEKEVVTERQENLRLVRLMQDKEEMIGKLKEEIDLLNRDLDDIEDENEQLKQENKTLLKVVGQLTR
notes: Gal4 fusion in two-hybrid; also called myc-Par4DD
B1: the binding result is given as “no binding” in assay [1]; “binds” in assay [2]; “no binding” in assay [3]; “binds” in assay [4]; “binds” in assay [5].
